Reference: article PMC6078998, “Functional activity of the H3.3 histone chaperone complex HIRA requires trimerization of the HIRA subunit” (Nature Communications, 2018)

Tests used:
[1] = target: the molecule itself; assay: SEC-MALS; HIRA(644–1017) purified in 500 mM NaCl
[2] = target: the molecule itself; assay: AUC; sedimentation equilibrium of single purified proteins, 4 °C, 280 nm, 2–3 concentrations, multiple speeds; 20 mM Tris pH 8.0, 300 mM NaCl, 1 mM TCEP; Heteroanalysis and SEDPHAT; the constant of HIRA is of a monomer–trimer equilibrium model
[3] = target: T1, CABIN1 full length (FL), recombinant (UniProt Q9Y6J0 1-2220); assay: SEC; Superose 6 10/300 GL fractionation; ~100 μM HIRA fragment incubated with ~20 μM CABIN1 FL in 500 μl, 30 min at 4 °C; 20 mM Tris pH 8.0, 300 mM NaCl, 1 mM TCEP; details: both partners purified
T1 construct: theoretical molecular weight printed as 246,352 Da; the discussion says 2200 amino-acid residues; Cloned into pFastBac HTA; No removal of the His tag is described; also called CABIN1 FL; FL His-CABIN1
T1 sequence (Q9Y6J0 whole entry, the tested form may be a part): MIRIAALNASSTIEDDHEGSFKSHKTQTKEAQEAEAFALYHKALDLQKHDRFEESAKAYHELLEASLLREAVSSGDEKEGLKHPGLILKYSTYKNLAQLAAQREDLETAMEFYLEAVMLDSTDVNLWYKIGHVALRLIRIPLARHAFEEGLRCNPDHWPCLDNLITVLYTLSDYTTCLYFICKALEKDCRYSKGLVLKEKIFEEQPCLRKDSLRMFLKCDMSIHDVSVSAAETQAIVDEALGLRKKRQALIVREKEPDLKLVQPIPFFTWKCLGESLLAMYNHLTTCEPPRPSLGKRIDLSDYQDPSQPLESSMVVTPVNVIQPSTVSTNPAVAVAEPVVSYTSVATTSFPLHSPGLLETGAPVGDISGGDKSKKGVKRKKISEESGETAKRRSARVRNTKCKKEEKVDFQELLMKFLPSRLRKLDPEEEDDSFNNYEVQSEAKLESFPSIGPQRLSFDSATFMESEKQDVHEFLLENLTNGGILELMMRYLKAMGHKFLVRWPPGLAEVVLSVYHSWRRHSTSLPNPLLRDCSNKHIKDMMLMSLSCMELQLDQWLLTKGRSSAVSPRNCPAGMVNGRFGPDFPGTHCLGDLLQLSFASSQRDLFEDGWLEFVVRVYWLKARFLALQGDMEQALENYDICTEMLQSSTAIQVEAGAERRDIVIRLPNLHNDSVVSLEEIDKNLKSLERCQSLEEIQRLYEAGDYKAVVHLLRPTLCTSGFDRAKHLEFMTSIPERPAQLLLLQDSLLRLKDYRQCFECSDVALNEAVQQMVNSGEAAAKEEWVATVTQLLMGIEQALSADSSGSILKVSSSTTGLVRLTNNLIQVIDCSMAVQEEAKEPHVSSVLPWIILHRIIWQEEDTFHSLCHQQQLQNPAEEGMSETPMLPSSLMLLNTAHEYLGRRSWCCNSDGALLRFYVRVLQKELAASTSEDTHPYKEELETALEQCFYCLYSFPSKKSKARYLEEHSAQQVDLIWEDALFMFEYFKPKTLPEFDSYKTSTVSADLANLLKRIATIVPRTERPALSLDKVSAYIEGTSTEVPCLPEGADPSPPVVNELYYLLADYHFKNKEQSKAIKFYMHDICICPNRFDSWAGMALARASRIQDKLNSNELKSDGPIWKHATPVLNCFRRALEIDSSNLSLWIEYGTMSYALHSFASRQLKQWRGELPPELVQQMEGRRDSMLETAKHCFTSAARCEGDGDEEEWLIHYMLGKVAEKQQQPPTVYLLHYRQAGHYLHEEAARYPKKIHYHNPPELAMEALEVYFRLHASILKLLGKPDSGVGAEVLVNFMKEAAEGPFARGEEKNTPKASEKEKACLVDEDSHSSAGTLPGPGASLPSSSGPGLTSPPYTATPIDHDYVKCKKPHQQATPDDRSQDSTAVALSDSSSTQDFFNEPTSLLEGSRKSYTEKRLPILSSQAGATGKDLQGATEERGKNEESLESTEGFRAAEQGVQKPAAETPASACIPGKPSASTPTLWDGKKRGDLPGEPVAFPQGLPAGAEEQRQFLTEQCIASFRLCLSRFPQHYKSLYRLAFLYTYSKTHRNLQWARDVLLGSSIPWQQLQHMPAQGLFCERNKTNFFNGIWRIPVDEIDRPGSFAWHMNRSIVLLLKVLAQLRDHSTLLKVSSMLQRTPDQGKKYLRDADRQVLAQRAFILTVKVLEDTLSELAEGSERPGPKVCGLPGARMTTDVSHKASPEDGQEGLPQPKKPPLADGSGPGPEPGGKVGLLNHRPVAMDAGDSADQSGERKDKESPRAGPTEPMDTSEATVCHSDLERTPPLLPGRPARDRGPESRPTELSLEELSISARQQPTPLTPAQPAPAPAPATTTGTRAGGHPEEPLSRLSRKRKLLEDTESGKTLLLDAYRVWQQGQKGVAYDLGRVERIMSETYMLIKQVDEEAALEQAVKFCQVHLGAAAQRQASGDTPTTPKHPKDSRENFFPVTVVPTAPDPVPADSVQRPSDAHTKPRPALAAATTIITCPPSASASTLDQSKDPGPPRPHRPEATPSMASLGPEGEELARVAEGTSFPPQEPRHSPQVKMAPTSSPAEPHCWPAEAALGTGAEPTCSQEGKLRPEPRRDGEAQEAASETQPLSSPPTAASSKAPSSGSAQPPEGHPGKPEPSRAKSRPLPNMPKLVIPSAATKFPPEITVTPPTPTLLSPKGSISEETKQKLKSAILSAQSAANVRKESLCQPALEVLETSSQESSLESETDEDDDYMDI

| Binder | stoichiometry N [1] | stoichiometry N [2] | binding result [3] |
| --- | --- | --- | --- |
| HIRA(644–1017) (domain or fragment, human, Cloned by NdeI/XhoI into pTXB1 (pYHD1); the forward primer has ATG before the first HIRA codon, so a start methionine may stand in front; A Se-Met labelled form was used for phasing only; Theoretical trimer weight printed as 125,815 Da; source: E. coli BL21(DE3), purified (chitin beads, on-column intein cleavage, Superdex 200); not shown: Intein (chitin beads), C-terminal, cleaved) GRPRKDSRLMPVSLSVQSPAALTAEKEAMCLSAPALALKLPIPSPQRAFTLQVSSDPSMYIEVENEVTVVGGVKLSRLKCNREGKEWETVLTSRILTAAGSCDVVCVACEKRMLSVFSTCGRRLLSPILLPSPISTLHCTGSYVMALTAAATLSVWDVHRQVVVVKEESLHSILAGSDMTVSQILLTQHGIPVMNLSDGKAYCFNPSLSTWNLVSDKQDSLAQCADFRSSLPSQDAMLCSGPLAIIQGRTSNSGRQAARLFSVPHVVQQETTLAYLENQVAAALTLQSSHEYRHWLLVYARYLVNEGFEYRLREICKDLLGPVHYSTGSQWESTVVGLRKRELLKELLPVIGQNLRFQRLFTECQEQLDILRDKLEGSS | 3 | – | – |
| recombinant human HIRA(661–1017) (domain or fragment, UniProt P54198 661-1017, looked up, Theoretical molecular weight of the homotrimer printed as 118,710 Da; also called HIRA trimer; not shown: GST, N-terminal, cleaved) SPAALTAEKEAMCLSAPALALKLPIPSPQRAFTLQVSSDPSMYIEVENEVTVVGGVKLSRLKCNREGKEWETVLTSRILTAAGSCDVVCVACEKRMLSVFSTCGRRLLSPILLPSPISTLHCTGSYVMALTAAATLSVWDVHRQVVVVKEESLHSILAGSDMTVSQILLTQHGIPVMNLSDGKAYCFNPSLSTWNLVSDKQDSLAQCADFRSSLPSQDAMLCSGPLAIIQGRTSNSGRQAARLFSVPHVVQQETTLAYLENQVAAALTLQSSHEYRHWLLVYARYLVNEGFEYRLREICKDLLGPVHYSTGSQWESTVVGLRKRELLKELLPVIGQNLRFQRLFTECQEQLDILRDK | – | 3 | binds |
| recombinant HIRA(661–1017 + FRL870-871-874AAA) (domain or fragment, human, UniProt P54198 661-1017, looked up, not shown: GST, N-terminal, cleaved) SPAALTAEKEAMCLSAPALALKLPIPSPQRAFTLQVSSDPSMYIEVENEVTVVGGVKLSRLKCNREGKEWETVLTSRILTAAGSCDVVCVACEKRMLSVFSTCGRRLLSPILLPSPISTLHCTGSYVMALTAAATLSVWDVHRQVVVVKEESLHSILAGSDMTVSQILLTQHGIPVMNLSDGKAYCFNPSLSTWNLVSDKQDSLAQCADAASSAPSQDAMLCSGPLAIIQGRTSNSGRQAARLFSVPHVVQQETTLAYLENQVAAALTLQSSHEYRHWLLVYARYLVNEGFEYRLREICKDLLGPVHYSTGSQWESTVVGLRKRELLKELLPVIGQNLRFQRLFTECQEQLDILRDK | – | – | binds |
| recombinant HIRA(661–1017) Δ873–904 (domain or fragment, human, UniProt P54198 661-1017, looked up, also called loop deletion mutant; not shown: GST, N-terminal, cleaved) SPAALTAEKEAMCLSAPALALKLPIPSPQRAFTLQVSSDPSMYIEVENEVTVVGGVKLSRLKCNREGKEWETVLTSRILTAAGSCDVVCVACEKRMLSVFSTCGRRLLSPILLPSPISTLHCTGSYVMALTAAATLSVWDVHRQVVVVKEESLHSILAGSDMTVSQILLTQHGIPVMNLSDGKAYCFNPSLSTWNLVSDKQDSLAQCADFRSSVPHVVQQETTLAYLENQVAAALTLQSSHEYRHWLLVYARYLVNEGFEYRLREICKDLLGPVHYSTGSQWESTVVGLRKRELLKELLPVIGQNLRFQRLFTECQEQLDILRDK | – | 3 | binds |
